Measured values taken from patent US20200405854A1, “Combination Therapies Comprising Daratumumab, Bortezomib, Thalidomide and Dexamethasone and Their Uses” (Janssen Biotech, Inc., priority 2019, published 2020).
Read-outs that look alike come from different tables or passages of the source.

Assays:
[1] = tested on: adult patients with relapsed and refractory multiple myeloma; experiment: Monotherapy safety, three open-label clinical trials; format: in vivo, human
Text: Serious adverse reactions were reported in 51 (33%) patients.

[2] = Clinical pharmacokinetics; format: in vivo, human
[3] = tested on: patients with multiple myeloma; experiment: Immunogenicity, anti-daratumumab antibodies; format: in vivo, human
Text: As with all therapeutic proteins, there is the potential for immunogenicity. The detection of antibody formation is highly dependent on the sensitivity and specificity of the assay. Additionally, the observed incidence of antibody (including neutralizing antibody) positivity in an assay may be influenced by several factors including assay methodology, sample handling, timing of sample collection, concomitant medications, and underlying disease. For these reasons, comparison of the incidence of antibodies to daratumumab in the studies described below with the incidence of antibodies in other studies or to other products may be misleading. […] One patient administered DARZALEX as combination therapy, developed transient neutralizing antibodies against daratumumab. However, this assay has limitations in detecting anti-daratumumab antibodies in the presence of high concentrations of daratumumab; therefore, the incidence of antibody development might not have been reliably determined.

[4] = Cardiac electrophysiology; settings: non-clinical or clinical data
[5] = target: T1, CD38 on red blood cells (RBCs) (Homo sapiens, UniProt P28907); experiment: Indirect Antiglobulin Test (Indirect Coombs test) interference
T1 construct: endogenous in cells; host or cells: red blood cells (reagent RBCs / donor RBCs in blood-bank testing)
Text: Daratumumab binds to CD38 on red blood cells (RBCs) and results in a positive Indirect Antiglobulin Test (Indirect Coombs test). Daratumumab-mediated positive indirect antiglobulin test may persist for up to 6 months after the last daratumumab infusion. Daratumumab bound to RBCs masks detection of antibodies to minor antigens in the patient's serum [see References (15)]. The determination of a patient's ABO and Rh blood type are not impacted [see Drug Interactions (7.1)].
Daratumumab binds to CD38 on RBCs and interferes with compatibility testing, including antibody screening and cross matching. Daratumumab interference mitigation methods include treating reagent RBCs with dithiothreitol (DTT) to disrupt daratumumab binding [see References (15)] or genotyping. Since the Kell blood group system is also sensitive to DTT treatment, K-negative units should be supplied after ruling out or identifying alloantibodies using DTT-treated RBCs.

NK cells = experiment: Pharmacodynamics, NK cells; format: in vivo, human; settings: peripheral whole blood and bone marrow
Text: NK cells express CD38 and are susceptible to daratumumab mediated cell lysis.

[6] = Solution pH and storage of diluted solution; format: physicochemical
Text: Prepare the solution for infusion using aseptic technique as follows: • Calculate the dose (mg), total volume (mL) of DARZALEX solution required and the number of DARZALEX vials needed based on patient actual body weight. • Check that the DARZALEX solution is colorless to pale yellow. […] Infusion bags/containers must be made of either polyvinylchloride (PVC), polypropylene (PP), polyethylene (PE) or polyolefin blend (PP+PE). Dilute under appropriate aseptic conditions. Discard any unused portion left in the vial. • Gently invert the bag/container to mix the solution. […] The diluted solution may develop very small, translucent to white proteinaceous particles, as daratumumab is a protein. […] (59° F.−77° F.) and in room light. Diluted solution may be kept at room temperature for a maximum of 15 hours (including infusion time). • If not used immediately, the diluted solution can be stored prior to administration for up to 24 hours at refrigerated conditions 2° C.−8° C. (36° F.−46° F.) and protected from light.
DARZALEX is supplied as a colorless to pale yellow preservative-free solution for intravenous infusion in single-dose vials. The pH is 5.5.

[7] = tested on: patients with multiple myeloma
[8] = tested on: patients with relapsed or refractory multiple myeloma; experiment: SIRIUS open-label monotherapy trial, efficacy; format: in vivo, human
Text: (§1) Treatment continued until unacceptable toxicity or disease progression.
The median patient age was 63.5 years (range: 31 to 84 years), 49% were male and 79% were Caucasian. Patients had received a median of 5 prior lines of therapy. […] Prior therapies included bortezomib (99%), lenalidomide (99%), pomalidomide (63%) and carfilzomib (50%).

[9] = tested on: patients with newly diagnosed multiple myeloma eligible for ASCT; experiment: CASSIOPEIA, adverse reactions and laboratory abnormalities
[10] = tested on: patients with relapsed or refractory multiple myeloma; experiment: Study GEN501 open-label dose escalation monotherapy trial, efficacy; format: in vivo, human
Text: as §1
Seventy-four percent of patients had received prior ASCT. Prior therapies included bortezomib (100%), lenalidomide (95%), pomalidomide (36%) and carfilzomib (19%).

DARZALEX: immunoglobulin G1 kappa (IgG1κ) human monoclonal antibody against CD38 antigen; HC SEQ ID NO: 9, LC SEQ ID NO: 10
Anemia, laboratory abnormality ([1]; Any Grade): 45%
Arthralgia ([1]; Any Grade): 17%
Back pain ([1]; Any Grade): 23%
Chills ([1]; Any Grade): 10%
Constipation ([1]; Any Grade): 15%
Cough ([1]; Any Grade): 21%
Decreased appetite ([1]; Any Grade): 15%
Diarrhea ([1]; Any Grade): 16%
Dyspnea ([1]; Any Grade): 15%
Fatigue ([1]; Any Grade): 39%
Headache ([1]; Any Grade): 12%
Hypertension ([1]; Any Grade): 10%
Infusion reaction ([1]; Any Grade): 48%
Lymphopenia, laboratory abnormality ([1]; Any Grade): 72%
Musculoskeletal chest pain ([1]; Any Grade): 12%
Nasal congestion ([1]; Any Grade): 17%
Nasopharyngitis ([1]; Any Grade): 15%
Nausea ([1]; Any Grade): 27%
Neutropenia, laboratory abnormality ([1]; Any Grade): 60%
Pain in extremity ([1]; Any Grade): 15%
Pneumonia ([1]; Any Grade): 11%
Pyrexia ([1]; Any Grade): 21%
Thrombocytopenia, laboratory abnormality ([1]; Any Grade): 48%
Upper respiratory tract infection ([1]; Any Grade): 20%
Vomiting ([1]; Any Grade): 14%
Anemia, laboratory abnormality ([1]; Grade 3): 19%
Arthralgia ([1]; Grade 3): 0%
Back pain ([1]; Grade 3): 2%
Chills ([1]; Grade 3): 0%
Constipation ([1]; Grade 3): 0%
Cough ([1]; Grade 3): 0%
Decreased appetite ([1]; Grade 3): 1%
Diarrhea ([1]; Grade 3): 1%
Dyspnea ([1]; Grade 3): 1%
Fatigue ([1]; Grade 3): 2%
Headache ([1]; Grade 3): 1%
Hypertension ([1]; Grade 3): 5%
Infusion reaction ([1]; Grade 3): 3%
Lymphopenia, laboratory abnormality ([1]; Grade 3): 30%
Musculoskeletal chest pain ([1]; Grade 3): 1%
Nasal congestion ([1]; Grade 3): 0%
Nasopharyngitis ([1]; Grade 3): 0%
Nausea ([1]; Grade 3): 0%
Neutropenia, laboratory abnormality ([1]; Grade 3): 17%
Pain in extremity ([1]; Grade 3): 1%
Pneumonia ([1]; Grade 3): 6%
Pyrexia ([1]; Grade 3): 1%
Thrombocytopenia, laboratory abnormality ([1]; Grade 3): 10%
Upper respiratory tract infection ([1]; Grade 3): 1%
Vomiting ([1]; Grade 3): 0%
Anemia, laboratory abnormality ([1]; Grade 4): 0%
Arthralgia ([1]; Grade 4): 0%
Back pain ([1]; Grade 4): 0%
Chills ([1]; Grade 4): 0%
Constipation ([1]; Grade 4): 0%
Cough ([1]; Grade 4): 0%
Decreased appetite ([1]; Grade 4): 0%
Diarrhea ([1]; Grade 4): 0%
Dyspnea ([1]; Grade 4): 0%
Fatigue ([1]; Grade 4): 0%
Headache ([1]; Grade 4): 0%
Hypertension ([1]; Grade 4): 0%
Infusion reaction ([1]; Grade 4): 0%
Lymphopenia, laboratory abnormality ([1]; Grade 4): 10%
Musculoskeletal chest pain ([1]; Grade 4): 0%
Nasal congestion ([1]; Grade 4): 0%
Nasopharyngitis ([1]; Grade 4): 0%
Nausea ([1]; Grade 4): 0%
Neutropenia, laboratory abnormality ([1]; Grade 4): 3%
Pain in extremity ([1]; Grade 4): 0%
Pneumonia ([1]; Grade 4): 0%
Pyrexia ([1]; Grade 4): 0%
Thrombocytopenia, laboratory abnormality ([1]; Grade 4): 8%
Upper respiratory tract infection ([1]; Grade 4): 0%
Vomiting ([1]; Grade 4): 0%
serious adverse reactions ([1]; monotherapy 16 mg/kg, 156 patients): 33%
area under the concentration-time curve (AUC), dose dependence ([2]; 1 to 24 mg/kg monotherapy or 1 to 16 mg/kg combination therapy): increases more than proportionally
drug-drug interactions between daratumumab and lenalidomide, pomalidomide, bortezomib and dexamethasone ([2]; clinical pharmacokinetic assessments): no clinically relevant drug-drug interactions
terminal half-life compared with monotherapy ([2]; combination therapy): similar
volume of distribution ([2]; combination therapy): 4.4 ± 1.5 L
trough serum concentration (Cmin), mean±SD ([2]; end of weekly dosing, monotherapy): 573 ± 332 µg/mL
central volume of distribution and clearance with increasing body weight ([2]; human, in vivo): increased
clearance with increasing dose and with multiple dosing ([2]; human, in vivo): decreased
linear clearance, mean±SD ([2]; monotherapy): 171.4 ± 95.3 mL/day
terminal half-life associated with linear clearance, mean±SD ([2]; monotherapy): 18 ± 9 days
volume of distribution ([2]; monotherapy): 4.7 ± 1.3 L
differences in pharmacokinetics based on sex, age, mild and moderate hepatic impairment, or renal impairment ([2]; monotherapy or combination therapy): No clinically significant differences
time to steady state ([2]; monotherapy, into the every 4-week dosing period (by the 21st infusion)): approximately 5 months
patients tested positive for anti-daratumumab antibodies ([3]; 111 evaluable monotherapy patients): none
patients tested positive for anti-daratumumab antibodies ([3]; of the 1,050 evaluable combination therapy patients): 2
potential to delay ventricular repolarization [4]: no evidence
Indirect Antiglobulin Test (Indirect Coombs test) result [5]: positive
persistence of positive indirect antiglobulin test after the last infusion [5]: up to 6 months
absolute counts and percentages of total NK cells and activated NK cells (NK cells): Decreases
time diluted solution can be stored prior to administration ([6]; refrigerated 2° C.−8° C., protected from light): up to 24 hours
time diluted solution may be kept ([6]; room temperature, including infusion time): ≤ 15 h
pH ([6]; solution for intravenous infusion): 5.5
incidence of any grade infusion reactions ([7]; Week 2 infusion): 2%
Grade 3/4 infusion reaction ([7]; Week 2 or subsequent infusions): Less than 1%
incidence of any grade infusion reactions ([7]; cumulatively, subsequent infusions): 6%
incidence of any grade infusion reactions ([7]; first (16 mg/kg, Week 1) infusion): 37%
incidence of infusion modification due to reactions ([7]; human, in vivo): 36%
Hepatitis B virus reactivation ([7]; including fatal cases): less than 1%
time of infusion reactions after completing DARZALEX ([7]; nearly all reactions, during infusion or within): ≤ 4 h
time of infusion reactions after infusion ([7]; prior to the introduction of post-infusion medication): up to 48 hours
patients who experienced an infusion reaction ([7]; share of all patients in clinical trials): approximately half
Overall response rate (ORR) ([8]; N = 106): 29.2%
Partial response (PR) ([8]; in vivo): 17.0%
Stringent complete response (sCR) ([8]; in vivo): 2.8%
Very good partial response (VGPR) ([8]; in vivo): 9.4%
median duration of response ([8]; in vivo): 7.4 months
median time to response ([8]; in vivo): 1 month
Complete response (CR) ([8]; number of patients): 0
Overall response rate (ORR) ([8]; number of patients): 31
Partial response (PR) ([8]; number of patients): 18
Stringent complete response (sCR) ([8]; number of patients): 3
Very good partial response (VGPR) ([8]; number of patients): 10
IRRs Grade 3 or 4 ([9]; at re-initiation following ASCT): < 1%
incidence of IRRs ([9]; first infusion following ASCT, upon re-initiation): 11%
CR, number of patients ([10]; 16 mg/kg, 42 patients): 1
Overall response rate ([10]; 16 mg/kg, 42 patients): 36%
VGPR, number of patients ([10]; 16 mg/kg, 42 patients): 3
median duration of response ([10]; in vivo): not estimable
median time to response ([10]; in vivo): 1 month
